{"source": "patent US20190292537", "about": "“Prokaryotic Argonaute Proteins and Uses Thereof” (Wageningen Universiteit, published 2019)", "binders": {"B1": {"name": "DNA guide 3466 ; RNA target 7022 (ssDNA ; ssRNA)", "DNA": "TGAGGTAGTAGGTTGTATAGT", "RNA": "AAACGACGGCCAGUGCCAAGCUUACUAUACAACCUACUACCUCAU", "modifications": "5'-phosphate ; 5'-phosphate"}, "B2": {"name": "RNA guide 7024 ; RNA target 7022 (ssRNA ; ssRNA)", "RNA 1": "UGAGGUAGUAGGUUGUAUAGU", "RNA 2": "B1 RNA", "modifications": "5'-phosphate ; 5'-phosphate"}, "B3": {"name": "DNA guide 3466 ; DNA target 7023 (ssDNA ; ssDNA)", "DNA 1": "TGAGGTAGTAGGTTGTATAGT", "DNA 2": "AAACGACGGCCAGTGCCAAGCTTACTATACAACCTACTACCTCAT", "modifications": "5'-phosphate ; 5'-phosphate"}, "B4": {"name": "RNA guide 7024 ; DNA target 7023 (ssRNA ; ssDNA)", "RNA": "UGAGGUAGUAGGUUGUAUAGU", "DNA": "B3 DNA 2", "modifications": "5'-phosphate ; 5'-phosphate"}}, "details_in_all_cases": "tags: His-MBP N-terminal (TEV added during purification)", "key": {"[1]": {"target": "T1, CbAgo (Clostridium butyricum, UniProt P0DYD1 SEQ:1-748)", "assay": "EMSA; DNA guide, RNA target, 37 C", "description": "(§1) CbAgo (10 pmol) was pre-incubated with the desired polynucleotide guide (RNA guide: 7024, DNA guide: 3466, 10 pmol) for 5 min at 37° C. This was followed by addition of a target polynucleotide (RNA target: […]: 7043, 10 pmol) and another incubation step of 5 min at 37° C. The reactions were then resolved on a 6% Native PAGE gel and stained with SYBR gold."}, "[2]": {"target": "T1, CbAgo", "assay": "EMSA; RNA guide, RNA target, 37 C", "description": "as §1"}, "[3]": {"target": "T1, CbAgo", "assay": "EMSA; DNA guide preloaded, 37 C; target printed as 7043 in text, 7023 in Table 2", "description": "as §1"}, "[4]": {"target": "T1, CbAgo", "assay": "EMSA; RNA guide, DNA target, 37 C; target printed as 7043 in text, 7023 in Table 2", "description": "as §1"}}, "data": [{"binder": "B1", "values": [{"measurement": "binding result", "setting": "[1]", "result": "binds"}]}, {"binder": "B2", "values": [{"measurement": "binding result", "setting": "[2]", "result": "binds"}]}, {"binder": "B3", "values": [{"measurement": "binding result", "setting": "[3]", "result": "binds"}]}, {"binder": "B4", "values": [{"measurement": "binding result", "setting": "[4]", "result": "binds"}]}]}
